For two substances, EC50 (read off the curve), EC50, NFAT luciferase reporter assay (n=3) and EC50 results are on record in patent US20230060388A1.

Assay [1] addresses recombinant mouse TIGIT (mouse) (UniProt P86176). Description: ELISA on recombinant mouse-TIGIT. On the technique in general: In an ELISA, binding on a coated surface is turned into a signal by an enzyme label.
Assay [2] deals with human TIGIT expressed on cells (stably transfected Jurkat cells) (human) (UniProt Q495A1). Description: cell-based or functional assay.
Chain of human TIGIT expressed on cells (stably transfected Jurkat cells) (human) (Q495A1 22-244 limits assumed): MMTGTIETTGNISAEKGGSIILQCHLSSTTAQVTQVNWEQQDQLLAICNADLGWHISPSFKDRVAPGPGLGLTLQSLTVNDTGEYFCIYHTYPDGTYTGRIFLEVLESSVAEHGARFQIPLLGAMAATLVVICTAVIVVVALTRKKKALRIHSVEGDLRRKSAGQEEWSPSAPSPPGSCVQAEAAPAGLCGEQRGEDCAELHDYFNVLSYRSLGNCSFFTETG
For assay [3] the target is unchanged. Description: whole cell binding, flow cytometry, n=3 (FIG. 10A). On the technique in general: A flow cytometer gives signals particle by particle.
For assay [4] the target is unchanged. The assay is described as follows: flow cytometry on h-TIGIT transfected Jurkat cells (whole cell binding), Alexa Fluor 488; representative of three experiments.
Assay [5] addresses recombinant cynomolgus TIGIT (cynomolgus monkey). Description: ELISA on recombinant cyno-TIGIT.
Assay [6] concerns the target recombinant human TIGIT extracellular domain (ECD) (human) (UniProt Q495A1). The assay is described as follows: ELISA on recombinant human TIGIT ECD.

Chain of recombinant human TIGIT extracellular domain (ECD) (human) (Q495A1 22-138 limits assumed): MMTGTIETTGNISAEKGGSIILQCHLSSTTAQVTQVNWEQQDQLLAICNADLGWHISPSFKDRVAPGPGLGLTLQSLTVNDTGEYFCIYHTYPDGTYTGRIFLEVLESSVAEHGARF
Chain of recombinant mouse TIGIT (mouse) (P86176 29-148 limits assumed): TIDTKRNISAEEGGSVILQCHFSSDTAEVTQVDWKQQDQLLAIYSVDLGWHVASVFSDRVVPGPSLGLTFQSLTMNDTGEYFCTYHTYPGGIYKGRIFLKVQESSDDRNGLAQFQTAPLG

For the substance “anti-mouse TIGIT reference antibody (Biolegend #142101)”, in assay [1], the concentration for a half-maximal effect (EC50 (read off the curve)) was found to be 0.08 µg/mL.
As to “Reference Ab 2 (same amino acid sequences as Tiragolumab) (antibody)”, the EC50, NFAT luciferase reporter assay (n=3) in assay [2] was 0.72 nM. This substance also registered a 50% effective concentration (EC50) in assay [3] of 0.61 nM. The EC50 (read off the curve) in assay [4] was found to be 0.5 nM; in assay [5], 0.1 µg/mL; in assay [6], 0.1 µg/mL.

A word on the EC50 (read off the curve): it is the concentration giving half of the maximal effect. In general, EC50 refers to the concentration at which the effect is half-maximal.
